Source: article PMC5613346 (Biochemistry and Biophysics Reports, 2016)

How the values were obtained:
mTNFR2 Fc chimera = molecular target: T1, mTNFR2 Fc chimera (mouse, UniProt P25119); test: SPR
T1 sequence: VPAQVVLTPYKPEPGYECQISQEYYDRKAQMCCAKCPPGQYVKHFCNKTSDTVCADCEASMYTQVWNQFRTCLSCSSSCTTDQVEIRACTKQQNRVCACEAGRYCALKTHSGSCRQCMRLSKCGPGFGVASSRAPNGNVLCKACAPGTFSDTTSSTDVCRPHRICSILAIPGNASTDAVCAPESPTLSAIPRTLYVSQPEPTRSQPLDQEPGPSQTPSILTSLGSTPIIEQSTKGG

mTNFR1 Fc chimera = molecular target: T2, mTNFR1 Fc chimera (mouse, UniProt P25118); test: SPR
T2 sequence: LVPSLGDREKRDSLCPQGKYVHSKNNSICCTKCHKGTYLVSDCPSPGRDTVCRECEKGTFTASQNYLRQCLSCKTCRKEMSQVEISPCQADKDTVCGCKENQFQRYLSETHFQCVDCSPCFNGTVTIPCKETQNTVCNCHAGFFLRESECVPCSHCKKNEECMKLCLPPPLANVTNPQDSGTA

[1] = molecular target: T3, mouse wtTNF (mouse), P06804; test: SEC; settings: remark: other sources report otherwise
T3 chain: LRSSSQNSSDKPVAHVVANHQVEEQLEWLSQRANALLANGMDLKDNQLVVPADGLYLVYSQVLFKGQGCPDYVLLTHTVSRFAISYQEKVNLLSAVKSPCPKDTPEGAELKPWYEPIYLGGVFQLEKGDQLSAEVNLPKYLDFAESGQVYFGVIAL

B1: mouse wtTNF (ligand)
chain: LRSSSQNSSDKPVAHVVANHQVEEQLEWLSQRANALLANGMDLKDNQLVVPADGLYLVYSQVLFKGQGCPDYVLLTHTVSRFAISYQEKVNLLSAVKSPCPKDTPEGAELKPWYEPIYLGGVFQLEKGDQLSAEVNLPKYLDFAESGQVYFGVIAL
For B1, the Kd (mTNFR2 Fc chimera) was 10.4 nM, the koff (mTNFR2 Fc chimera) was 0.0056 s⁻¹ and the kon (mTNFR2 Fc chimera) was 537000 M⁻¹ s⁻¹. The Kd (mTNFR1 Fc chimera) was 5.84 nM, the koff (mTNFR1 Fc chimera) was 0.000969 s⁻¹ and the kon (mTNFR1 Fc chimera) was 166000 M⁻¹ s⁻¹. For the same binder, the stoichiometry N [1] was 3.
